Test: soluble on expression in E. coli; label from the status in PepcDB or PDB records

Row | Sequence | soluble on expression in E. coli
1 | MITVVIADRLGKGQNVAKGVEQAGGRAVVVPGMGADMRLGDVMQQEKADLGISFCGSGGAGALTAATKYGYPERHGMRSIEEGVTAINDGKTVLGFGFMDQEELGKRVTEAFIKKHGA | not soluble
2 | NISYFSIGSGTPIIFLHGLSLDKQSTCLFFEPLSNVGQYQRIYLDLPGMGNSDPISPSTSDNVLETLIEAIEEIIGARRFILYGHSYGGYLAQAIAFHLKDQTLGVFLTCPVITADHSKRLTGKHINILEEDINPVENKEYFADFLSMNVIINNQAWHDYQNLIIPGLQKEDKTFIDQLQNNYSFTFEEKLKNINYQFPFKIMVGRNDQVVGYQEQLKLINHNENGEIVLLNRTGHNLMIDQREAVGFHFDLFLDE | not soluble
3 | MVSSLLMSFAPATVRVYATSTKGGSGGPKEEKNPIDFVLGFMTKQDQFYETNPLLKKVDEKEGTTTGGRGTVRGGKNSAPTPVPKKSEGGFGGLGSLFKK | not soluble
4 | MGSDKIHHHHHHMKADRLLEIVALLQNHEKLTTHQLVDHLHVSSRTILRDMDTLSALGIPIVSERGRAGGWKLMDHFRSQLSGMSMTELKALFILPSDKVLKDLGIPTKGRDIRLNMLSSLQGNRKHAVRPYLEKVYIDTGTWKPSKERMEEFNVVQQAVFEEKKLYIVYENAKGEQRERLISPLGLVAKGSAWYVVATVETGDIRNFKLSRIKDSKLVREPIVKPETFSLATYWNESKEQFVQTLPSYEATVLAHDSIIHRLTFTGKFVENIQVGHRDDEWVTVNLCFHDEQEITEYVLGFGGRMKLVTPKHLIGRIVQQASAVIQQYASDKEPTNETKEGL | not soluble
5 | MAHHHHHHMSTVEDFVLQALASTDAVESDKLAETLRVNHQDVVGAIKSLEADGYVVSEIKPKPTWKLTSEAENICESGSPEFLLWELLAGGAMTQEDIAEKFGKDVAAVAVANGMKAKIFALNKSEGKIIVTRSPSVSSFHDGIRVSLMRALKGEHVDPKEAETLKKRKLATLDNMKVFFVTKGPNYATQRRAKAVGDLTKEMLQDGSWKTAHFKEYNLGAAGREVGCGQLHPLLKVRQEFREIFMELGFREMETDRWVESSFWNFDALFIAQNHPARDVQDTFFVSKPSTHKLDHREVVDRVREMHEKNFNYTWKEEEARRNVLRTHTTCCSGYWLHHIAKSSPLLPNGRRDFCPGRYYSIDRVFRNEEMDRTHLCEFHQVEGCVIDRNISLSNMMHTFQLFFSRIGVEKLRFKPVFNPYTEPSMEIFGWHKQLKRWIEVGNSGLFRPEMLVPLGFDEDVTVMAWGLSLERPTMIKYGLSSIHELFGHKVDLRFIKQSKLMRF | soluble
6 | GPGSMITEGAATPCAEVPAIRRVRRTRSRFERLVRPEDVAPGEPTPSVEGWVLFLTNLPPNTTMDHITDLFVTREGEGLWNVREVKMPLDKNCECCGYALVELEKREAFEAALRDMEGMTLSFAEGEPPNGEDAWRLHIAPTFLGEKDDEEEELVAGGKRERE | soluble
7 | MAHHHHHHMSKAVQQIFEDYNRSRAQFTQSIYDMCLKAHHMEVIISTDIIMLLRPLILDKVPIVQQNATQILGKMASHSEEVALTILQNDVLPHLVYCLKHENKNYRKNCANTLRCLASHNAKLANLVAEEENCIDNLVDSLDEYDVRLKEACLNALCAIGKHDVDLSKQLMAKGIIPLVILSLQEKDTNLVRSSLNILTELSKHTNEIAKEVVDNNALPHLIKFLDHTDVQVKRYACNCLAQIAKHKEELTELIIESDVFPRVIYLLNDSDDVVKKNCANCLKEMSKHNEDICKIIARAGSLPFLCECIEQSSKGAVKLPAILCIGFIASFSESLSLNIILSNAIPILKKCLIGEEEDYIKASCVWAVGNIGKHSSSHAKKLSDENLLIILVNLYNANDSSDDLKKKVKLSFKGVIQKVTDLESLEPVFLKATAKLAKYCICQFAKIIPKSPAHKKAFIKSGCLKRLQVGRQSSCAIFPRCRVTVLPPYRPSAHPCTPSPLHRK | not soluble
8 | GPGSMSQEGGKSEPDANEKEQRNQKLRLGLEAMFCAQEIPSEKRTDIESDGEEVPPSITRDEDRYRQVAEAILRIDTKSKIIEINNIRLFSVAEIELDKLTECTSLSLRKNLLHDLIPFPEDLADRLDELDLFDNKIRKLNDFFETVTVPGDPPTTKTLPNAYKCLTKLDLSYNQIREIGGLDSIGGTLRELYLVENKIKEVKNLDSLVNLELLELGGNRLRAIGSGLEKLTKLKQLWLGKNKISSIGTALHKLVSLEILSLQANRITSVDAENFLGAKANPNLREVYLSENGLTSVGNVRHLSTIKIIDFSFNSICSIDAEEINPQTMPKLEEFWLTDGNIADWEEVGKLSGFTSTLKTVYLERNPIEEDKRYRDKVYMYLPFLVQIDSWPIVNKGNLEADRKRKA | not soluble
9 | MKTLVVALGGNALLQRGEALTAENQYRNIASAVPALARLARSYRLAIVHGNGPQVGLLALQNLAWKEVEPYPLDVLVAESQGMIGYMLAQSLSAQPQMPPVTTVLTRIEVSPDDPAFLQPEKFIGPVYQPEEQEALEAAYGWQMKRDGKYLRRVVASPQPRKILDSEAIELLLKEGHVVICSGGGGVPVTDDGAGSEAVIDKDLAAALLAEQINADGLVILTDADAVYENWGTPQQRAIRHATPDELAPFAKADGSMGPNVTAVSGYVRSRGKPAWIGALSRIEETLAGEAGTCISL | not soluble
10 | GGSVIVIDSKAAWDAQLAKGKEEHKPIVVDFTATWCGPCKMIAPLFETLSNDYAGKVIFLKVDVDAVAAVAEAAGITAMPTFHVYKDGVKADDLVGASQDKLKALVAKHAAA | soluble
11 | MGSDKIHHHHHHNEDNLKIKTIKGDSNELDHININFGYALNGYINSYYTINGSNKTKKTELIKLQKDSKNTNNLIDVSSGSDLIAHVGFEMNEESKDINFVIDEKKEDLEKGVFPSEGSDKEIEYEKLDMNNFTRTRYKVDKSTDDYYAKILASKRYKKYLYVSVLYATSDSSENNKEYSSTIDIIKINPENKKIKTIKSINLSNYFSEKYQNIENIGVSYASKYEDKMYILVNVLNTNIGDNSNSKFHLLEYNLEENKESIMELKTDSKMALAKAKLEANKLYMVMSNDYDNSSITELNLLTYNILDKSLDEDKYVLDNREKRGIRSIEIDSNKIVAYTSRLNSILSWDDKFMLYIINKNSKEIVYEGELQFNSSNSMLEFEIK | not soluble
12 | MAHHHHHHMRSLTRIASAGVRLDNIDLIGCVGATAAAKLPYTWQVGKSFSDNSASAAAAGGRTTSKITGSVYAVHQQHLFLPLTIEIGFGVQMKHDKDEEYVSRLVGGVLVRVNSSGTYGMLLDSSRFIMAGSAEMIILSKGQAPILRTSR | not soluble
13 | MKPIDRFSYLKNNRVSQDTSSLVQCYLPIIGQEALSLYLYTISFWDNGRKEYLFSSILNHLNFGMDRLIKSLKILSAFNLLTLYQKGDVYQLALHAPLSSQDFLGHPVYRRLLEKKIGDVAVEDLKVESADGEEIPVSLNQVFPELAELGSQEDLGLKKKVANDFDLEHFRQLMARDGLRFADEQSDVLNLFAIAEEKKWTWFETYQLAKSTAVSQVISTKRMREKIAQKPVSSDFSLKEATIIKEAKSKTALQFLAEIKQTRKGTITQTERELLQQMAGLGLLDEVINIILLLTFNKVDSANINEKYAMKVANDYAYQKIHSAEEAVLRIRDRGQKAKTQKQNQTAPEKTNVPKWSNPEYKNETSEETRLELERKKQELLARLEKGGD | not soluble
14 | MHTKGPTPQQHDGSALRIGIVHARWNETIIEPLLAGTKAKLLACGVKESNIVVQSVPGSWELPIAVQRLYSASQLQTPSSGPSLSAGDLLGSSTTDLTALPTTTASSTGPFDALIAIGVLIKGETMHFEYIADSVSHGLMRVQLDTGVPVIFGVLTVLTDDQAKARAGVIEGSHNHGEDWGLAAVEMGVRRRDWAAGKTE | soluble
15 | MTYPTFALDDITSLHESAQVEFKLARGRDGQGQLPEDIWATYSSFANTLGGEIILGVREDRGHFTIEGIPNPQPVLQEFWEIIDNPSRVSCNILAISDVQLIEIMNKKLIRIRVPLAPEHLKPVFIGTDVYTGSYFRVGDADMHASRKQVMQMLRRAHHCNKLFKARLEHHHHHH | not soluble
16 | MSLVTVSDVKQYHFCKAIPWINYVMGYREPSTFSMEEGKKISYEEVVKSLNLTTPVKYEVCLSYNGLSGCIDILAGDRKYTVVEVKAFKRGNFSHFRYQLLAYAYLVRKRLGIVERAILVMEGKKVLEIEPTEEHYRYIENVVKKIEEIVNSEKLPAVNVEKCDFCQYRRICPVSVWSEGHHHHHH | soluble
17 | KTIYLQSPYFIPDASLLEAIKIAALSGVDVRVMIPNKPDHAFVYRATTNYAGELMETGAKIFIYDNGFIHAKTLVVDGEIASVGTANMDFRSFRLNFEVNAFIYEKKMVQKLEDAFLEDILKSYQLTPELYAKR | not soluble
18 | MKIVIGTKIKEQRQQHEWSQQTVAERLHVSRQTISKWELGKSYPDLELLVALSKLFSVSTDELLGLSRRPVQRPWWQLLLRKRSRTDMTVKWYSGGQDRARVAVGIISDLVANLNTTNEQPLRQLLATYYQELLEQRTGSVLGVFDRMNLDISKCLRQQQIKLSPENEQLMQQLVGLNMIYYR | not soluble
19 | SKSNLEYSFSNILKNIFSPIREKESVKKVIYYSIPIALTTASYRLVNDLDGIFILSMLGAYDNGVYGY | not soluble
20 | GPGSMTSVETRIQALVQRYTLMENNINKLRKALASLGEGQQNANTTPRNEATAVAHHRDPCDLKELQPCPQDTPEVAALRRWCIEHSLTTAVFRWVPSDYYQHTLQWRRDELAAPSVHHLCKSILMENTHCTNKDCGVRENSRYYLIVYPYTEKFDAEMVMRHVKGLNEGLGKKKFNFRLAAPDVALQLTGFGHGAVAPFGTPTEIPVILSDKILQLTPAVFWMGGGHVDCKVRVDVEQFMEVIKPIVASVTTPLSAEELGQLVD | soluble
21 | VLGDKEWVYLPGLKESFKARIDTGATTSSISAVDIVPFERGGQDWVKFRIEHDNIRSEELSLPVERWVRIRQSSAEEAQRRAVVVAWIQIGDLKEQTEFTLTDRTHLTYPLLLGRSFFKDVAVVDVSRHYIQPKHPSPKK | not soluble
22 | MYPSDFASQLNVLSLKEMKEAIHHLLDIRDENTWMLFGTLPIYPCLNDEYDQHLLQRLRKSKNVTMRNDPDGRSRLNVNVFTGDVIVTDFGDENGTISNIQKDKLTDVFNQWLNTDLAQSLNCHCAEYQCLGPNVLVKNMYYPNTDFKKKEQIMHQHQIFS | not soluble
23 | MSLKYDWILFDADETLFHFDAFKGMQLMFARKGVEFTEQDFHQYQEVNKPLWVDYQNGDITAAQLKHTRFAGWAEKLNTTTDELNSAFLQAMADICTLLPGAMELMQALQGKARLGIITNGFTELQDVRLAKTGMTDFFDQIVISEEVGIAKPDAGIFAHALERMGNPTKSRVLMVGDNPHSDILGGLNFGIETCWLNVHQHPKPDGITPHYEVTSLHELREILLAEGHHHHHH | soluble
24 | MSLAQHPTGIHHLAFMAGDIKKHIAFFSDVMGCPLVALFDMHGVPGGLHAFLRMNDHSYFSIVQLPDVDKIPVQLGVTHAGNGARPSAPGTLQHLAFRADTEDALLALRDRIRSHGINVLGPIDHGMCRSIYFAGPDQMTLEVACSSETIDEGHHHHHH | soluble
25 | SGCIQSITCKARIRRENIVVYDVCATIDQCPTRIEETSPIVLRYKTPYFKASARVVMPPIPRHETWVVGWIQACNQMEFFNTYSDLGMSSWELPDLREGRVKAISDSDGVSYPWYGNTTETVTLVGPTNKISRFSVSMNDNFYPSVTWAVPVSDSNVPLLTRIKRDQSFTTWLVAMNTTTKEKIILQTIKWRMRVDIEVDPLQLLGQRARLVGRTQQEQPRILSRMEPIPPNALVKPNANDAQVLMWRPKRGPPLVVIPPK | soluble

Source: the DeepSol protein solubility set
